System: CC(=O)Oc1ccc([N+](=O)[O-])cc1
Test: purified protein
Conditions: 50 mM Tris-HCl pH 8.0, room temperature, substrate 0.0015-3.0 mM

Substance: EstRag (Lysinibacillus sp. YS11)
- Km: 31 µM
- kcat: 20.4 s⁻¹
- kcat/Km: 658000 M⁻¹ s⁻¹
